Reference: patent publication US20210238260
Residue numbers refer to the chain shown, from its start. Names and notes keep the numbering of the source.

B1: FIXa-Y155F/K247N/N249S/R338E/T343R/R403E (protein)
chain 1: YNSGKLEEFVQGNLERECMEEKCSFEEAREVFENTERTTEFWKQYVDGDQCESNPCLNGGSCKDDINSYECWCPFGFEGKNCELDVTCNIKNGRCEQFCKNSADNKVVCSCTEGYRLAENQKSCEPAVPFPCGRVSVSQTSKLTR
chain 2: VVGGEDAKPGQFPWQVVLNGKVDAFCGGSIVNEKWIVTAAHCVETGVKITVVAGEHNIEETEHTEQNRSVIRIIPHHNYNAAINKYNHDIALLELDEPLVLNSYVTPICIADKEYTNIFLKFGSGYVSGWGRVFHKGRSALVLQYLRVPLVDRATCLESTKFRIYNNMFCAGFHEGGRDSCQGDSGGPHVTEVEGTSFLTGIISWGEECAMKGKYGIYTKVSEYVNWIKEKTKLT
B2: FIXa-K247N/N249S/R338E/T343R/R403E (protein)
chain 1: B1 chain 1
chain 2: B1 chain 2
B3: FIXa-Y155F/K247N/N249S/R338E/T343R/E410N (protein)
chain 1: B1 chain 1
chain 2: B1 chain 2 with E223R, E230N
B4: FIXa-K247N/N249S/R338E/T343R/E410N (protein)
chain 1: B1 chain 1
chain 2: B1 chain 2 with E223R, E230N
B5: FIXa-Y155F/K247N/N249S/T343R/R403E/E410N (protein)
chain 1: B1 chain 1
chain 2: B1 chain 2 with E158R, E230N
B6: FIXa-Y155F/R338E/R403E/E410N (protein)
chain 1: B1 chain 1
chain 2: B1 chain 2 with N67K, S69N, E158R, R163T, R178E, E230N
B7: FIXa-Y155F/R318Y/R338E/R403E (protein)
chain 1: B1 chain 1
chain 2: B1 chain 2 with N67K, S69N, R138Y, R163T
B8: FIXa-Y155F/R318Y/R403E/E410N (protein)
chain 1: B1 chain 1
chain 2: B1 chain 2 with N67K, S69N, R138Y, E158R, R163T, E230N
B9: FIXa variant Y259F/K265T/Y345T (protein)
chain 1: B1 chain 1
chain 2: B1 chain 2 with N67K, S69N, Y79F, K85T, E158R, R163T, Y165T, E223R
B10: FIXa variant Y155F/K228N/R318Y/R338E/R403E/E410N (protein)
chain 1: B1 chain 1
chain 2: B1 chain 2 with K48N, N67K, S69N, R138Y, R163T, E230N
B11: FIXa variant D85N/K228N/R318Y/R338E/R403E/E410N (protein)
chain 1: B1 chain 1 with D85N
chain 2: B1 chain 2 with K48N, N67K, S69N, R138Y, R163T, E230N
B12: FIXa variant I251S/R318Y/R338E/R403E/E410N (protein)
chain 1: B1 chain 1
chain 2: B1 chain 2 with N67K, S69N, I71S, R138Y, R163T, E230N
B13: FIXa variant D104N/K106S/I251S/R318Y/R338E/R403E/E410N (protein)
chain 1: B1 chain 1 with D104N, K106S
chain 2: B1 chain 2 with N67K, S69N, I71S, R138Y, R163T, E230N
B14: FIXa variant Y155F/I251S/R318Y/R338E/R403E/E410N (protein)
chain 1: B1 chain 1
chain 2: B1 chain 2 with N67K, S69N, I71S, R138Y, R163T, E230N
B15: FIXa variant I251S/R318Y/R338E/E410N (protein)
chain 1: B1 chain 1
chain 2: B1 chain 2 with N67K, S69N, I71S, R138Y, R163T, E223R, E230N
B16: FIXa variant K247N/N249S/R318Y/R338E/R403E/E410N (protein)
chain 1: B1 chain 1
chain 2: B1 chain 2 with R138Y, R163T, E230N
B17: FIXa variant Y155F/K247N/N249S/R318Y/R338E/R403E/E410N (protein)
chain 1: B1 chain 1
chain 2: B1 chain 2 with R138Y, R163T, E230N
B18: FIXa variant D104N/K106S/K247N/N249S/R318Y/R338E/R403E/E410N (protein)
chain 1: B1 chain 1 with D104N, K106S
chain 2: B1 chain 2 with R138Y, R163T, E230N
B19: FIXa variant D104N/K106S/Y155F/K247N/N249S/R318Y/R338E/R403E/E410N (protein)
chain 1: B1 chain 1 with D104N, K106S
chain 2: B1 chain 2 with R138Y, R163T, E230N
B20: FIXa variant K247N/N249S/R318Y/R338E/E410N (protein)
chain 1: B1 chain 1
chain 2: B1 chain 2 with R138Y, R163T, E223R, E230N
B21: FIXa variant Y155F/K247N/N249S/R318Y/R338E/E410N (protein)
chain 1: B1 chain 1
chain 2: B1 chain 2 with R138Y, R163T, E223R, E230N
B22: FIXa-D104N/K106S/K228N/K247N/N249S/R318Y/R338E/R403E/E410N (protein)
chain 1: B1 chain 1 with D104N, K106S
chain 2: B1 chain 2 with K48N, R138Y, R163T, E230N
B23: FIXa-Y155F/R318Y/R338E/T343R/R403E/E410N (protein)
chain 1: B1 chain 1
chain 2: B1 chain 2 with N67K, S69N, R138Y, E230N
B24: FIXa-D104N/K106S/R318Y/R338E/T343R/R403E/E410N (protein)
chain 1: B1 chain 1 with D104N, K106S
chain 2: B1 chain 2 with N67K, S69N, R138Y, E230N
B25: FIXa-R318Y/R338E/N346Y/R403E/E410N (protein)
chain 1: B1 chain 1
chain 2: B1 chain 2 with N67K, S69N, R138Y, R163T, N166Y, E230N
B26: FIXa-R318Y/R338E/T343R/N346Y/R403E/E410N (protein)
chain 1: B1 chain 1
chain 2: B1 chain 2 with N67K, S69N, R138Y, N166Y, E230N
B27: FIXa-R318Y/R338E/T343R/N346D/R403E/E410N (protein)
chain 1: B1 chain 1
chain 2: B1 chain 2 with N67K, S69N, R138Y, N166D, E230N
B28: FIXa-R318Y/R338E/Y345A/R403E/E410N (protein)
chain 1: B1 chain 1
chain 2: B1 chain 2 with N67K, S69N, R138Y, R163T, Y165A, E230N
B29: FIXa-R318Y/R338E/Y345A/N346D/R403E/E410N (protein)
chain 1: B1 chain 1
chain 2: B1 chain 2 with N67K, S69N, R138Y, R163T, Y165A, N166D, E230N
B30: FIXa R338E/R403E/E410N (protein)
chain 1: B1 chain 1
chain 2: B1 chain 2 with N67K, S69N, R163T, E230N
B31: FIXa Y155F/R338E/R403E/E410N (protein)
chain 1: B1 chain 1
chain 2: B1 chain 2 with N67K, S69N, E158R, R163T, R178E, E230N
B32: FIXa R318Y/R338E/R403E (protein)
chain 1: B1 chain 1
chain 2: B1 chain 2 with N67K, S69N, R138Y, R163T
B33: FIXa Y155F/R318Y/R338E/R403E (protein)
chain 1: B1 chain 1
chain 2: B1 chain 2 with N67K, S69N, R138Y, R163T
B34: FIXa D203N/F205T/K228N (protein)
chain 1: B1 chain 1
chain 2: B1 chain 2 with D23N, F25T, K48N, N67K, S69N, E158R, R163T, E223R
B35: FIXa D203N/F205T/E410N (protein)
chain 1: B1 chain 1
chain 2: B1 chain 2 with D23N, F25T, N67K, S69N, E158R, R163T, E223R, E230N
B36: FIXa D203N/F205T/R338E (protein)
chain 1: B1 chain 1
chain 2: B1 chain 2 with D23N, F25T, N67K, S69N, R163T, E223R
B37: FIXa D203N/F205T/R338A (protein)
chain 1: B1 chain 1
chain 2: B1 chain 2 with D23N, F25T, N67K, S69N, E158A, R163T, E223R
B38: FIXa D203N/F205T/R318Y (protein)
chain 1: B1 chain 1
chain 2: B1 chain 2 with D23N, F25T, N67K, S69N, R138Y, E158R, R163T, E223R
B39: FIXa D203N/F205T/R338E/R403E (protein)
chain 1: B1 chain 1
chain 2: B1 chain 2 with D23N, F25T, N67K, S69N, R163T
B40: FIXa K228N/R338E/R403E (protein)
chain 1: B1 chain 1
chain 2: B1 chain 2 with K48N, N67K, S69N, R163T
B41: FIXa R318Y/R338E/E410N (protein)
chain 1: B1 chain 1
chain 2: B1 chain 2 with N67K, S69N, R138Y, R163T, E223R, E230N
B42: FIXa D104N/K106S/R318Y/R338E/E410N (protein)
chain 1: B1 chain 1 with D104N, K106S
chain 2: B1 chain 2 with N67K, S69N, R138Y, R163T, E223R, E230N

Target: Factor X (FX), P00742
Sequence (P00742 whole entry, looked up): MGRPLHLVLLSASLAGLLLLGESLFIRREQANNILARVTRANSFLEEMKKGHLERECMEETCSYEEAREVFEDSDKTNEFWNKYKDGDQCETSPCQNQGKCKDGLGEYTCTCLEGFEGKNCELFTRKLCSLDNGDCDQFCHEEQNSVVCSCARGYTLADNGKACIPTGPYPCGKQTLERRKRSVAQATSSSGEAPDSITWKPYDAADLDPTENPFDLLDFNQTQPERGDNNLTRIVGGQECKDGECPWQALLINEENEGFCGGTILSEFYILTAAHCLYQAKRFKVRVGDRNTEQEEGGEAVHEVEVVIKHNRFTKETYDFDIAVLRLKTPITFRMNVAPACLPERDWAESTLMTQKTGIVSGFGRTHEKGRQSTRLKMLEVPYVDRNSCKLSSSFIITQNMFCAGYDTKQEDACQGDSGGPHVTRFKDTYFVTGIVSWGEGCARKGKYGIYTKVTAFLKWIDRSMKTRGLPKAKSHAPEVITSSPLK

Row | Protein | KM | kcat | other results
1 | B1 | 0.0251 µM | – | % of WT kcat/KM: 1269%; kcat (s^-1) of FX activation by FIXa variant in the Xase complex (FVIIIa, PC/PS vesicles, Ca2+), fluorogenic FXa read-out: 14.6 s⁻¹; kcat/KM for FX activation (Xase: FVIIIa, PC/PS vesicles, Ca2+): 5.9e+08 M⁻¹ s⁻¹
2 | B2 | 0.0263 µM | – | % of WT kcat/KM: 1215%; catalytic activity (kcat/KM) for activation of FX: improved activity when combined with other mutations; kcat (s^-1) of FX activation by FIXa variant in the Xase complex (FVIIIa, PC/PS vesicles, Ca2+), fluorogenic FXa read-out: 14.6 s⁻¹; kcat/KM for FX activation (Xase: FVIIIa, PC/PS vesicles, Ca2+): 5.6e+08 M⁻¹ s⁻¹
3 | B3 | 0.027 µM | – | % of WT kcat/KM: 391%; kcat (s^-1) of FX activation by FIXa variant in the Xase complex (FVIIIa, PC/PS vesicles, Ca2+), fluorogenic FXa read-out: 4.8 s⁻¹; kcat/KM for FX activation (Xase: FVIIIa, PC/PS vesicles, Ca2+): 1.8e+08 M⁻¹ s⁻¹
4 | B4 | 0.0275 µM | – | % of WT kcat/KM: 676%; kcat (s^-1) of FX activation by FIXa variant in the Xase complex (FVIIIa, PC/PS vesicles, Ca2+), fluorogenic FXa read-out: 7.9 s⁻¹; kcat/KM for FX activation (Xase: FVIIIa, PC/PS vesicles, Ca2+): 3.1e+08 M⁻¹ s⁻¹
5 | B5 | 0.052 µM | – | % of WT kcat/KM: 635%; kcat (s^-1) of FX activation by FIXa variant in the Xase complex (FVIIIa, PC/PS vesicles, Ca2+), fluorogenic FXa read-out: 15 s⁻¹; kcat/KM for FX activation (Xase: FVIIIa, PC/PS vesicles, Ca2+): 2.9e+08 M⁻¹ s⁻¹
6 | B6 | – | 5.9 s⁻¹ | –
7 | B7 | – | 5.1 s⁻¹ | –
8 | B8 | – | 2.9 s⁻¹ | –
9 | B9 | – | 1.7 s⁻¹ | –
10 | B10 | – | 6.7 s⁻¹ | –
11 | B11 | – | 6 s⁻¹ | –
12 | B12 | – | 4.8 s⁻¹ | –
13 | B13 | – | 5.5 s⁻¹ | –
14 | B14 | – | 7.2 s⁻¹ | –
15 | B15 | – | 6.4 s⁻¹ | –
16 | B16 | – | 5.8 s⁻¹ | –
17 | B17 | – | 6.2 s⁻¹ | –
18 | B18 | – | 5.2 s⁻¹ | –
19 | B19 | – | 6.9 s⁻¹ | –
20 | B20 | – | 3.8 s⁻¹ | –
21 | B21 | – | 4.5 s⁻¹ | –

Row | Protein | KM | kcat | other results
22 | B22 | – | – | kcat of FX activation by FIXa (Xase complex with FVIIIa, PC/PS vesicles, Ca2+): 6.1 s⁻¹
23 | B23 | – | – | kcat of FX activation by FIXa (Xase complex with FVIIIa, PC/PS vesicles, Ca2+): 7.8 s⁻¹
24 | B24 | – | – | kcat of FX activation by FIXa (Xase complex with FVIIIa, PC/PS vesicles, Ca2+): 5.7 s⁻¹
25 | B25 | – | – | kcat of FX activation by FIXa (Xase complex with FVIIIa, PC/PS vesicles, Ca2+): 3.4 s⁻¹
26 | B26 | – | – | kcat of FX activation by FIXa (Xase complex with FVIIIa, PC/PS vesicles, Ca2+): 4.6 s⁻¹
27 | B27 | – | – | kcat of FX activation by FIXa (Xase complex with FVIIIa, PC/PS vesicles, Ca2+): 5.4 s⁻¹
28 | B28 | – | – | kcat of FX activation by FIXa (Xase complex with FVIIIa, PC/PS vesicles, Ca2+): 1.4 s⁻¹
29 | B29 | – | – | kcat of FX activation by FIXa (Xase complex with FVIIIa, PC/PS vesicles, Ca2+): 1.2 s⁻¹
30 | B30 | 0.0367 µM | – | –
31 | B31 | 0.0336 µM | – | –
32 | B32 | 0.0597 µM | – | –
33 | B33 | 0.0671 µM | – | –
34 | B34 | 0.0399 µM | – | –
35 | B35 | 0.0455 µM | – | –
36 | B36 | 0.0241 µM | – | –
37 | B37 | 0.0385 µM | – | –
38 | B38 | 0.0475 µM | – | –
39 | B39 | 0.0511 µM | – | –
40 | B40 | 0.0592 µM | – | –
41 | B41 | 0.0139 µM | – | –
42 | B42 | 0.0189 µM | – | –
